# According to the supplement of paper PMC9112550, “Optimization of the antimicrobial peptide Bac7 by deep mutational scanning” (BMC Biology, 2022):
# Tested on: Escherichia coli TOP10
# Test: shrunken log2 fold change of peptide-encoding DNA abundance (4.5 h post-induction vs induction); higher = less antimicrobial activity (less host growth inhibition)
# Conditions: time post-induction: 4.5 h; library: site-saturation at positions 5, 18, 19, 20
# 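Also: peptides expressed intracellularly from a pBAD plasmid library in pooled LB shake-flask culture, induced with 0.3% L-arabinose, DNA abundance read by NGS, three biological replicates, DESeq2 with apeglm shrinkage.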
row,Sequence,shrunken log2 fold change
1,RRIRLRPPRLPRPRPRPVIMPRP,-0.0794
2,RRIRLRPPRLPRPRPRPVLDPRP,-0.366
3,RRIRLRPPRLPRPRPRPVNAPRP,0.0227
4,RRIRLRPPRLPRPRPRPVNCPRP,-0.0144
5,RRIRLRPPRLPRPRPRPVNGPRP,-0.0366
6,RRIRLRPPRLPRPRPRPVQPPRP,0.653
7,RRIRLRPPRLPRPRPRPVRGPRP,0.682
8,RRIRLRPPRLPRPRPRPVRKPRP,-0.0647
9,RRIRLRPPRLPRPRPRPVRNPRP,0.0234
10,RRIRLRPPRLPRPRPRPVRQPRP,0.569
11,RRIRLRPPRLPRPRPRPVTMPRP,-0.195
12,RRIRLRPPRLPRPRPRPVVPPRP,0.139
13,RRIRLRPPRLPRPRPRPVWKPRP,-0.0133
14,RRIRLRPPRLPRPRPRPVWSPRP,0.0624
15,RRIRLRPPRLPRPRPRPVYKPRP,-0.134
16,RRIRLRPPRLPRPRPRPVYPPRP,-0.132
17,RRIRLRPPRLPRPRPRPVYSPRP,-0.881
18,RRIRLRPPRLPRPRPRPWADPRP,-0.118
19,RRIRLRPPRLPRPRPRPWCMPRP,-0.408
20,RRIRLRPPRLPRPRPRPWDEPRP,0.066
21,RRIRLRPPRLPRPRPRPWDIPRP,-0.0445
22,RRIRLRPPRLPRPRPRPWIRPRP,-0.0231
23,RRIRLRPPRLPRPRPRPWKVPRP,0.0854
24,RRIRLRPPRLPRPRPRPWLIPRP,-0.00228
25,RRIRLRPPRLPRPRPRPWMRPRP,0.892

row,Sequence,shrunken log2 fold change
1,RRIRLRPPRLPRPRPRPWMTPRP,-0.0262
2,RRIRLRPPRLPRPRPRPWPLPRP,-0.039
3,RRIRLRPPRLPRPRPRPWPMPRP,-0.0188
4,RRIRLRPPRLPRPRPRPWRYPRP,-0.268
5,RRIRLRPPRLPRPRPRPWSFPRP,0.018
6,RRIRLRPPRLPRPRPRPWSPPRP,-0.303
7,RRIRLRPPRLPRPRPRPWVAPRP,0.29
8,RRIRLRPPRLPRPRPRPWVCPRP,-0.0462
9,RRIRLRPPRLPRPRPRPWVIPRP,-0.0649
10,RRIRLRPPRLPRPRPRPWWIPRP,-0.107
11,RRIRLRPPRLPRPRPRPWWVPRP,0.0559
12,RRIRLRPPRLPRPRPRPWYQPRP,-0.149
13,RRIRLRPPRLPRPRPRPYAVPRP,0.00157
14,RRIRLRPPRLPRPRPRPYAYPRP,-0.0124
15,RRIRLRPPRLPRPRPRPYCPPRP,-0.24
16,RRIRLRPPRLPRPRPRPYDNPRP,-1.57
17,RRIRLRPPRLPRPRPRPYDTPRP,-0.925
18,RRIRLRPPRLPRPRPRPYEAPRP,-1.12
19,RRIRLRPPRLPRPRPRPYEVPRP,-0.0159
20,RRIRLRPPRLPRPRPRPYFHPRP,-1.08
21,RRIRLRPPRLPRPRPRPYGWPRP,-0.265
22,RRIRLRPPRLPRPRPRPYHVPRP,-1.29
23,RRIRLRPPRLPRPRPRPYIFPRP,-0.549
24,RRIRLRPPRLPRPRPRPYIIPRP,-0.217
25,RRIRLRPPRLPRPRPRPYIWPRP,-0.017

row,Sequence,shrunken log2 fold change
1,RRIRLRPPRLPRPRPRPYKIPRP,-0.0766
2,RRIRLRPPRLPRPRPRPYKLPRP,-0.0961
3,RRIRLRPPRLPRPRPRPYKNPRP,-0.631
4,RRIRLRPPRLPRPRPRPYLCPRP,-0.0953
5,RRIRLRPPRLPRPRPRPYLMPRP,-0.69
6,RRIRLRPPRLPRPRPRPYLPPRP,-0.18
7,RRIRLRPPRLPRPRPRPYLQPRP,-0.0746
8,RRIRLRPPRLPRPRPRPYQQPRP,-0.18
9,RRIRLRPPRLPRPRPRPYRAPRP,-0.21
10,RRIRLRPPRLPRPRPRPYTIPRP,-0.048
11,RRIRLRPPRLPRPRPRPYVQPRP,-0.144
12,RRIRLRPPRLPRPRPRPYWTPRP,-0.435
13,RRIRLRPPRLPRPRPRPYYVPRP,-0.0539
14,RRIRMRPPRLPRPRPRPAASPRP,1.25
15,RRIRMRPPRLPRPRPRPAAYPRP,0.206
16,RRIRMRPPRLPRPRPRPACVPRP,0.428
17,RRIRMRPPRLPRPRPRPACWPRP,1.06
18,RRIRMRPPRLPRPRPRPACYPRP,0.223
19,RRIRMRPPRLPRPRPRPAEIPRP,0.11
20,RRIRMRPPRLPRPRPRPAGMPRP,0.655
21,RRIRMRPPRLPRPRPRPAIKPRP,-0.183
22,RRIRMRPPRLPRPRPRPAKWPRP,0.708
23,RRIRMRPPRLPRPRPRPAMFPRP,0.388
24,RRIRMRPPRLPRPRPRPANCPRP,-0.242
25,RRIRMRPPRLPRPRPRPANKPRP,0.178

row,Sequence,shrunken log2 fold change
1,RRIRMRPPRLPRPRPRPAPYPRP,0.576
2,RRIRMRPPRLPRPRPRPAQCPRP,0.0203
3,RRIRMRPPRLPRPRPRPAQKPRP,1.2
4,RRIRMRPPRLPRPRPRPARCPRP,1.16
5,RRIRMRPPRLPRPRPRPARKPRP,1.29
6,RRIRMRPPRLPRPRPRPARMPRP,0.888
7,RRIRMRPPRLPRPRPRPASAPRP,1.09
8,RRIRMRPPRLPRPRPRPAWMPRP,0.189
9,RRIRMRPPRLPRPRPRPAWQPRP,0.197
10,RRIRMRPPRLPRPRPRPAYAPRP,0.0769
11,RRIRMRPPRLPRPRPRPCCFPRP,0.116
12,RRIRMRPPRLPRPRPRPCDPPRP,-0.0166
13,RRIRMRPPRLPRPRPRPCFYPRP,-0.16
14,RRIRMRPPRLPRPRPRPCHDPRP,-0.347
15,RRIRMRPPRLPRPRPRPCHVPRP,-0.0132
16,RRIRMRPPRLPRPRPRPCKDPRP,-0.0302
17,RRIRMRPPRLPRPRPRPCMRPRP,0.889
18,RRIRMRPPRLPRPRPRPCMYPRP,0.051
19,RRIRMRPPRLPRPRPRPCRWPRP,0.00911
20,RRIRMRPPRLPRPRPRPCSYPRP,-0.0368
21,RRIRMRPPRLPRPRPRPCVAPRP,0.764
22,RRIRMRPPRLPRPRPRPCVCPRP,-0.00811
23,RRIRMRPPRLPRPRPRPCVTPRP,0.0301
24,RRIRMRPPRLPRPRPRPCVYPRP,-0.195
25,RRIRMRPPRLPRPRPRPCWSPRP,0.349

row,Sequence,shrunken log2 fold change
1,RRIRMRPPRLPRPRPRPDALPRP,0.438
2,RRIRMRPPRLPRPRPRPDFAPRP,0.0706
3,RRIRMRPPRLPRPRPRPDGTPRP,2.88
4,RRIRMRPPRLPRPRPRPDHMPRP,0.0296
5,RRIRMRPPRLPRPRPRPDKGPRP,-0.0141
6,RRIRMRPPRLPRPRPRPDKLPRP,0.282
7,RRIRMRPPRLPRPRPRPDLPPRP,-0.0325
8,RRIRMRPPRLPRPRPRPDMRPRP,0.0245
9,RRIRMRPPRLPRPRPRPDNFPRP,-0.184
10,RRIRMRPPRLPRPRPRPDNTPRP,0.28
11,RRIRMRPPRLPRPRPRPDNWPRP,0.402
12,RRIRMRPPRLPRPRPRPDPHPRP,0.0256
13,RRIRMRPPRLPRPRPRPDPSPRP,-0.0334
14,RRIRMRPPRLPRPRPRPDQEPRP,0.0392
15,RRIRMRPPRLPRPRPRPDQWPRP,0.312
16,RRIRMRPPRLPRPRPRPDRAPRP,0.861
17,RRIRMRPPRLPRPRPRPDREPRP,-0.00516
18,RRIRMRPPRLPRPRPRPDRQPRP,0.239
19,RRIRMRPPRLPRPRPRPDSAPRP,0.599
20,RRIRMRPPRLPRPRPRPDTDPRP,0.0472
21,RRIRMRPPRLPRPRPRPDTEPRP,0.33
22,RRIRMRPPRLPRPRPRPDTNPRP,1.3
23,RRIRMRPPRLPRPRPRPDTPPRP,0.872
24,RRIRMRPPRLPRPRPRPDVFPRP,0.387
25,RRIRMRPPRLPRPRPRPDVLPRP,-0.123

row,Sequence,shrunken log2 fold change
1,RRIRMRPPRLPRPRPRPDVYPRP,-0.119
2,RRIRMRPPRLPRPRPRPDWCPRP,0.0698
3,RRIRMRPPRLPRPRPRPDYEPRP,-0.0178
4,RRIRMRPPRLPRPRPRPDYKPRP,0.248
5,RRIRMRPPRLPRPRPRPDYVPRP,-0.183
6,RRIRMRPPRLPRPRPRPEDKPRP,2.94
7,RRIRMRPPRLPRPRPRPEELPRP,0.123
8,RRIRMRPPRLPRPRPRPEEMPRP,3.07
9,RRIRMRPPRLPRPRPRPEGCPRP,3.93
10,RRIRMRPPRLPRPRPRPEGEPRP,0.123
11,RRIRMRPPRLPRPRPRPEGTPRP,0.0716
12,RRIRMRPPRLPRPRPRPEGVPRP,3.21
13,RRIRMRPPRLPRPRPRPEHEPRP,0.0191
14,RRIRMRPPRLPRPRPRPEIDPRP,3.19
15,RRIRMRPPRLPRPRPRPEIIPRP,2.84
16,RRIRMRPPRLPRPRPRPEKLPRP,0.462
17,RRIRMRPPRLPRPRPRPEKMPRP,1.68
18,RRIRMRPPRLPRPRPRPEKQPRP,2.16
19,RRIRMRPPRLPRPRPRPELCPRP,3.34
20,RRIRMRPPRLPRPRPRPELMPRP,3.86
21,RRIRMRPPRLPRPRPRPEMFPRP,2.24
22,RRIRMRPPRLPRPRPRPENGPRP,0.0676
23,RRIRMRPPRLPRPRPRPEPDPRP,1.12
24,RRIRMRPPRLPRPRPRPEQNPRP,2.47
25,RRIRMRPPRLPRPRPRPERAPRP,2.76
